For assay [1], the target named is recombinant purified FRα (ECL assay calibrator) (human) (UniProt P15328). In words: ECL sandwich competition; competitors 9F3 capture / 24F12 detection; FRα standard STD03; MORAb-003 50 µg/mL.
Assay [2] shares this target. In words: ECL sandwich capture 30G6.G6.G4.E9 / detection 24H8.F3; calibrator incubated overnight with 10 µg/mL MORAb-003.
Assay [3] addresses endogenous folate receptor alpha in human serum and plasma samples (human) (UniProt P15328). In words: ECL sandwich capture 6A2.G7 / detection 1C6.E12.G8; serum incubated overnight with 10 µg/mL MORAb-003.
The target in assay [4] is recombinant purified FRα (ECL assay calibrator) (human) (UniProt P15328). The experiment in a line: ECL sandwich capture 19D4.B7 / detection 2F11.F8; calibrator incubated overnight with 10 µg/mL MORAb-003.
In assay [5] the target is endogenous folate receptor alpha in human serum and plasma samples (human) (UniProt P15328). The experiment in a line: ECL sandwich capture 26A9.C4 / detection 19D4.B7; serum incubated overnight with 10 µg/mL MORAb-003.
Sequence of endogenous folate receptor alpha in human serum and plasma samples (human) (P15328 25-234 limits assumed, form in doubt): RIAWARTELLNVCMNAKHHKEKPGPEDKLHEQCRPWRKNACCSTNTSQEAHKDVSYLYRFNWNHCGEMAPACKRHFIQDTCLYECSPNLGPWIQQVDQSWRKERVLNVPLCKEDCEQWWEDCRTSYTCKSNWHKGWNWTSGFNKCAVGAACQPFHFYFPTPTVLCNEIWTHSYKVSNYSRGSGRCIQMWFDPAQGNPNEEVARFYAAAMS
For assay [6], the target named is recombinant purified FRα (ECL assay calibrator) (human) (UniProt P15328). In words: ECL sandwich competition; competitors 9F3 capture / 24F12 detection; FRα standard STD07; MORAb-003 10 µg/mL.
The target is the same in assay [7]. The experiment in a line: ECL sandwich capture 6A2.G7 / detection 1D2.G8.G10; calibrator incubated overnight with 10 µg/mL MORAb-003.
Assay [8] has the same target. The experiment in a line: ECL sandwich capture 6A2.G7 / detection 2F11.F8; calibrator incubated overnight with 10 µg/mL MORAb-003.
For assay [9], the target named is endogenous folate receptor alpha in human serum and plasma samples (human) (UniProt P15328). In words: ECL sandwich capture 24H8.F3 / detection 30G6.G6.G4.E9; serum incubated overnight with 10 µg/mL MORAb-003.
The target in assay [10] is recombinant purified FRα (ECL assay calibrator) (human) (UniProt P15328). In words: ECL sandwich capture 19D2.G9 / detection 19D4.B7; calibrator incubated overnight with 10 µg/mL MORAb-003.
Assay [11] shares this target. In words: ECL sandwich capture 30G6.G6.G4.E9 / detection 5C12.H8; calibrator incubated overnight with 10 µg/mL MORAb-003.
Assay [12] concerns the target endogenous folate receptor alpha in human serum and plasma samples (human) (UniProt P15328). In words: ECL sandwich capture 19D4.B7 / detection 24H8.F3; serum incubated overnight with 10 µg/mL MORAb-003.
In assay [13] the target is recombinant purified FRα (ECL assay calibrator) (human) (UniProt P15328). In words: ECL sandwich capture 30G6.G6.G4.E9 / detection 28H12.G9; calibrator incubated overnight with 10 µg/mL MORAb-003.
The target is the same in assay [14]. The experiment in a line: ECL sandwich capture 30G6.G6.G4.E9 / detection 6A2.G7; calibrator incubated overnight with 10 µg/mL MORAb-003.
Assay [15] addresses endogenous folate receptor alpha in human serum and plasma samples (human) (UniProt P15328). The experiment in a line: ECL sandwich capture 19D2.G9 / detection 19D4.B7; serum incubated overnight with 10 µg/mL MORAb-003.
For assay [16], the target named is recombinant purified FRα (ECL assay calibrator) (human) (UniProt P15328). In words: ECL sandwich capture 19D4.B7 / detection 5C12.H8; calibrator incubated overnight with 10 µg/mL MORAb-003.
Assay [17] has the same target. The experiment in a line: ECL sandwich capture 30G6.G6.G4.E9 / detection 1A8.G11.E7; calibrator incubated overnight with 10 µg/mL MORAb-003.
Assay [18] has the same target. In words: ECL sandwich capture 26A9.C4 / detection 19D4.B7; calibrator incubated overnight with 10 µg/mL MORAb-003.
Assay [19] concerns the target endogenous folate receptor alpha in human serum and plasma samples (human) (UniProt P15328). In words: ECL sandwich capture 19D4.B7 / detection 1C6.E12.G8; serum incubated overnight with 10 µg/mL MORAb-003.
In assay [20] the target is recombinant purified FRα (ECL assay calibrator) (human) (UniProt P15328). The experiment in a line: ECL sandwich capture 30G6.G6.G4.E9 / detection 26A9.C4; calibrator incubated overnight with 10 µg/mL MORAb-003.
Assay [21] concerns the target endogenous folate receptor alpha in human serum and plasma samples (human) (UniProt P15328). In words: ECL sandwich capture 19D2.G9 / detection 26A9.C4; serum incubated overnight with 10 µg/mL MORAb-003.
Assay [22] concerns the target recombinant purified FRα (ECL assay calibrator) (human) (UniProt P15328). In words: ECL sandwich capture 28H12.G9 / detection 19D4.B7; calibrator incubated overnight with 10 µg/mL MORAb-003.
The target in assay [23] is endogenous folate receptor alpha in human serum and plasma samples (human) (UniProt P15328). In words: ECL sandwich capture 19D4.B7 / detection 1D2.G8.G10; serum incubated overnight with 10 µg/mL MORAb-003.
In assay [24] the target is recombinant purified FRα (ECL assay calibrator) (human) (UniProt P15328). The experiment in a line: ECL sandwich capture 6A2.G7 / detection 19D2.G9; calibrator incubated overnight with 10 µg/mL MORAb-003.

Sequence of recombinant purified FRα (ECL assay calibrator) (human) (P15328 25-234 limits assumed): as the sequence (P15328 25-234 limits assumed, form in doubt) above

B1: farletuzumab (MORAb-003) (antibody, part only; not given: Constant regions, V domains shown, not shown: another chain or arm of the molecule)
VH: EVQLVESGGGVVQPGRSLRLSCSASGFTFSGYGLSWVRQAPGKGLEWVAMISSGGSYTYYADSVKGRFAISRDNAKNTLFLQMDSLRPEDTGVYFCARHGDDPAWFAYWGQGTPVTVSS
VL: DIQLTQSPSSLSASVGDRVTITCSVSSSISSNNLHWYQQKPGKAPKPWIYGTSNLASGVPSRFSGSGSGTDYTFTISSLQPEDIATYYCQQWSSYPYMYTFGQGTKVEIK
Turning to B1, the % of signal without MORAb-003 (MORAb-003 interference) in assay [1] is 58%; in [6] it was 87%. For the same molecule, the Drug Suppression of Cal Signal at 500 pg/mL in [2] was -8%; in assay [4], -4%; in assay [7], -7%; in [8] it was -4%; in assay [10] it was 2%; in assay [11], -7%. Besides, the Drug Suppression of Cal Signal at 500 pg/mL in assay [13] is -15%; in assay [14], -5%; in assay [16] it was -10%; in assay [17], 2%; in assay [18], 72%; in [20], -11%. For the same molecule, the Drug Suppression of Cal Signal at 500 pg/mL in assay [22] is -17%; in [24], -7%. Also, the Drug suppression of serum is -22.2% in assay [3]; -59.7% in assay [5]; -0.93% in assay [9]; -10.6% in [12]; 4.68% in assay [15]; -6.01% in assay [19]. Moreover, the Drug suppression of serum in assay [21] is -55.6%; in assay [23], -2.12%.

Values taken from patent US20180148504A1.
